For one assay, the target named is T1, bovine serum albumin (bovine, UniProt P02769 25-607).
T1 construct: also called BSA
The experiment in a line: size exclusion chromatography with fluorescence detection at 565 nm. As for the experimental part: The reaction was terminated by the addition of 10 μL of 1 M Tris-HCl (pH=7.0). Then, size exclusion chromatography was performed using Superdex™ 200 10/30GL 1.0 cm in diameter×30 cm (GE Healthcare Japan Corp.); flow rate: 0.3 ml/min; running buffer: PBS pH 7.4. Assay was conducted using a fluorescence detector RF-10A (Shimadzu Corp.) (excitation light: 541 nm, fluorescence: 565 nm).
(In general: In gel filtration, larger molecules generally elute earlier.)

In a further assay the target is T2, human IgG Fc (human, UniProt P01857-1 108-330 = IgG part).
T2 construct: domain: Fc; also called human IgG1 Fc
Description: X-ray crystal structure of the Fc/peptide complex.

Bridges are numbered along the chain shown (N, C = ends). Where no end group is shown, it is not given here. [ ]: non-standard residue; d: D form. hCys = N[C@@H](CCS)C(=O)O

T1 sequence (P02769 25-607 limits assumed): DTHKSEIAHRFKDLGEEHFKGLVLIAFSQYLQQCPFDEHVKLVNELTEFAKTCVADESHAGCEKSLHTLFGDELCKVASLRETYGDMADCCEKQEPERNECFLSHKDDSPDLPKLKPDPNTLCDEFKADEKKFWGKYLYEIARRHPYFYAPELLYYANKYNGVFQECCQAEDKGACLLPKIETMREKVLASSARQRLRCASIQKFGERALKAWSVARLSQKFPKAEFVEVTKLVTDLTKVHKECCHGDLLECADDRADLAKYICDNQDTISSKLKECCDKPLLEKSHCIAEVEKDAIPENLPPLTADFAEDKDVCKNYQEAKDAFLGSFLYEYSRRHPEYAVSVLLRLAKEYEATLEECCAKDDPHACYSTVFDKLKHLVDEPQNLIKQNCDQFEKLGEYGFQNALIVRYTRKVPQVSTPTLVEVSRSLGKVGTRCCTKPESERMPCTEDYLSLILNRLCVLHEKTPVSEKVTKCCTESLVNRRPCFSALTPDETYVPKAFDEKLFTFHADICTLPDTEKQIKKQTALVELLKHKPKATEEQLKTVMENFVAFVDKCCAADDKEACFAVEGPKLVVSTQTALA
Description for human IgG Fc: 70 μL of the crystallizing agent was dispensed thereto as a reservoir solution. The plate was hermetically sealed using PowerSeal CRISTAL VIEW (manufactured by Greiner Bio-One Co., Ltd.) and then left standing for approximately 2 weeks in a thermostat bath of 20° C. to obtain crystals.
The assay was carried out at an X-ray wavelength of 1 angstrom and an angle of oscillation of 1°/frame. Next, the diffraction intensity data was processed at a resolution of 3.0 angstroms using a diffraction intensity data processing program HKL2000 (manufactured by HKL Research Inc.).
A Fc moiety model registered as PDB accession code: 1DN2 in the Protein Data Bank (PDB, URL: http://www.rcsb.org/pdb/) was utilized as a search model for the molecular replacement method.

B1: fluorescent (5/6 TAMRA-PEG4) IgG-binding peptide modified with DSG (peptide)
peptide: GPDCAYHXGELVWCTFH
modifications: X at position 8 (lysine in Type I(R8K)) modified with DSG; N-terminal amino-PEG4 modified with 5/6 TAMURA succinimidyl ester (fluorescent dye); C-terminal amide; intramolecular S-S bond
notes: also called DSG-cross-linked peptide
Turning to B1, the binding result with bovine serum albumin is reported as “no binding”.

B2: fluorescent (5/6 TAMRA-PEG4) IgG-binding peptide modified with DSS (peptide)
peptide: GPDCAYHXGELVWCTFH
modifications: X at position 8 (lysine in Type I(R8K)) modified with DSS; N-terminal amino-PEG4 modified with 5/6 TAMURA succinimidyl ester (fluorescent dye); C-terminal amide; intramolecular S-S bond
notes: also called DSS-crosslinked peptide
As for B2, the binding result with bovine serum albumin is “no binding”.

B3: cyclic homocysteine peptide G(HC)DCAYHRGELVWCT(HC)H-NH2 (peptide)
peptide: G[hCys]DCAYHRGELVWCT[hCys]H-NH2
modifications: disulfide 4-14, 2-16; N-terminus assumed
SMILES: CC(C)C[C@@H]1NC(=O)[C@H](CCC(=O)O)NC(=O)CNC(=O)[C@H](CCCNC(=N)N)NC(=O)[C@H](Cc2c[nH]cn2)NC(=O)[C@H](Cc2ccc(O)cc2)NC(=O)[C@H](C)NC(=O)[C@@H]2CSSC[C@H](NC(=O)[C@H](Cc3c[nH]c4ccccc34)NC(=O)[C@H](C(C)C)NC1=O)C(=O)N[C@@H]([C@@H](C)O)C(=O)N[C@H](C(=O)N[C@@H](Cc1c[nH]cn1)C(N)=O)CCSSCC[C@H](NC(=O)CN)C(=O)N[C@@H](CC(=O)O)C(=O)N2
notes: Peptide put into the crystals with Fc; Residue numbers in the text (Arg8) count on the 17-residue peptide
For B3, the binding result in the assay with human IgG Fc is listed as “binds”.

(Values after US20240368223A1 (KAGOSHIMA UNIVERSITY, published 2024).)
